Experimental data taken from the supplement of paper PMC9112550, “Optimization of the antimicrobial peptide Bac7 by deep mutational scanning” (BMC Biology, 2022).

What follows are sequences tested on Escherichia coli TOP10 (assay: shrunken log2 fold change of peptide-encoding DNA abundance (4.5 h post-induction vs induction); higher = less antimicrobial activity (less host growth inhibition)). Conditions: time post-induction: 4.5 h; library: site-saturation at positions 5, 18, 19, 20.
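Further: peptides expressed intracellularly from a pBAD plasmid library in pooled LB shake-flask culture, induced with 0.3% L-arabinose, DNA abundance read by NGS, three biological replicates, DESeq2 with apeglm shrinkage.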

Row | Sequence | shrunken log2 fold change
1 | RRIRERPPRLPRPRPRPGPVPRP | 0.137
2 | RRIRERPPRLPRPRPRPGQDPRP | -0.0237
3 | RRIRERPPRLPRPRPRPGQNPRP | -0.0659
4 | RRIRERPPRLPRPRPRPGRPPRP | 0.164
5 | RRIRERPPRLPRPRPRPGRRPRP | 0.0607
6 | RRIRERPPRLPRPRPRPGTNPRP | -0.361
7 | RRIRERPPRLPRPRPRPGVYPRP | -0.049
8 | RRIRERPPRLPRPRPRPGYVPRP | -0.227
9 | RRIRERPPRLPRPRPRPHAHPRP | -0.0467
10 | RRIRERPPRLPRPRPRPHAKPRP | 0.0118
11 | RRIRERPPRLPRPRPRPHALPRP | -0.236
12 | RRIRERPPRLPRPRPRPHANPRP | -0.332
13 | RRIRERPPRLPRPRPRPHCDPRP | 0.023
14 | RRIRERPPRLPRPRPRPHCWPRP | -0.0487
15 | RRIRERPPRLPRPRPRPHFQPRP | 0.0177
16 | RRIRERPPRLPRPRPRPHGFPRP | -0.0632
17 | RRIRERPPRLPRPRPRPHHPPRP | -0.197
18 | RRIRERPPRLPRPRPRPHKDPRP | 0.144
19 | RRIRERPPRLPRPRPRPHKFPRP | -0.984
20 | RRIRERPPRLPRPRPRPHKKPRP | 0.0621
21 | RRIRERPPRLPRPRPRPHKPPRP | -0.519
22 | RRIRERPPRLPRPRPRPHLDPRP | 0.000475
23 | RRIRERPPRLPRPRPRPHLRPRP | -0.173
24 | RRIRERPPRLPRPRPRPHMFPRP | -0.749
25 | RRIRERPPRLPRPRPRPHMSPRP | -0.27

Row | Sequence | shrunken log2 fold change
26 | RRIRERPPRLPRPRPRPHPTPRP | 0.0575
27 | RRIRERPPRLPRPRPRPHQIPRP | -0.372
28 | RRIRERPPRLPRPRPRPHRMPRP | -0.305
29 | RRIRERPPRLPRPRPRPHRRPRP | 0.0407
30 | RRIRERPPRLPRPRPRPHRWPRP | 0.0978
31 | RRIRERPPRLPRPRPRPHSRPRP | -0.0374
32 | RRIRERPPRLPRPRPRPHSTPRP | -0.817
33 | RRIRERPPRLPRPRPRPHVIPRP | -0.133
34 | RRIRERPPRLPRPRPRPHYQPRP | -0.267
35 | RRIRERPPRLPRPRPRPIAAPRP | 0.466
36 | RRIRERPPRLPRPRPRPICAPRP | 0.0742
37 | RRIRERPPRLPRPRPRPICHPRP | -0.187
38 | RRIRERPPRLPRPRPRPICLPRP | -0.0493
39 | RRIRERPPRLPRPRPRPIDTPRP | -0.113
40 | RRIRERPPRLPRPRPRPIEPPRP | -0.26
41 | RRIRERPPRLPRPRPRPIFMPRP | -0.1
42 | RRIRERPPRLPRPRPRPIIRPRP | -0.447
43 | RRIRERPPRLPRPRPRPIKAPRP | -0.00435
44 | RRIRERPPRLPRPRPRPIKMPRP | -0.347
45 | RRIRERPPRLPRPRPRPIKNPRP | -1.13
46 | RRIRERPPRLPRPRPRPILGPRP | -0.197
47 | RRIRERPPRLPRPRPRPILMPRP | -0.317
48 | RRIRERPPRLPRPRPRPIMEPRP | -0.465
49 | RRIRERPPRLPRPRPRPINFPRP | -0.291
50 | RRIRERPPRLPRPRPRPINMPRP | -0.261

Row | Sequence | shrunken log2 fold change
51 | RRIRERPPRLPRPRPRPINWPRP | -0.169
52 | RRIRERPPRLPRPRPRPIQSPRP | -0.642
53 | RRIRERPPRLPRPRPRPIRWPRP | -0.0251
54 | RRIRERPPRLPRPRPRPIVDPRP | -0.204
55 | RRIRERPPRLPRPRPRPIVLPRP | -0.579
56 | RRIRERPPRLPRPRPRPIWDPRP | -0.254
57 | RRIRERPPRLPRPRPRPKAHPRP | 0.107
58 | RRIRERPPRLPRPRPRPKCKPRP | -0.173
59 | RRIRERPPRLPRPRPRPKCNPRP | 0.0249
60 | RRIRERPPRLPRPRPRPKCQPRP | -0.178
61 | RRIRERPPRLPRPRPRPKCRPRP | -0.0625
62 | RRIRERPPRLPRPRPRPKDSPRP | -0.212
63 | RRIRERPPRLPRPRPRPKFSPRP | -0.0396
64 | RRIRERPPRLPRPRPRPKHNPRP | -0.587
65 | RRIRERPPRLPRPRPRPKHPPRP | -0.0977
66 | RRIRERPPRLPRPRPRPKHQPRP | -0.0699
67 | RRIRERPPRLPRPRPRPKHSPRP | 0.111
68 | RRIRERPPRLPRPRPRPKIAPRP | -0.147
69 | RRIRERPPRLPRPRPRPKIYPRP | -0.165
70 | RRIRERPPRLPRPRPRPKLSPRP | -0.173
71 | RRIRERPPRLPRPRPRPKNKPRP | -0.559
72 | RRIRERPPRLPRPRPRPKNRPRP | 0.103
73 | RRIRERPPRLPRPRPRPKPDPRP | 0.0317
74 | RRIRERPPRLPRPRPRPKPFPRP | -0.37
75 | RRIRERPPRLPRPRPRPKRAPRP | -0.145
